The target in assay [1] is T1, 重组TEM8蛋白 (recombinant TEM8 protein, 北京义翘神州生物技术有限公司) (UniProt Q9H6X2 33-321, limits assumed).
T1 construct: Bought recombinant protein coated on an ELISA plate; also called TEM8重组蛋白; 肿瘤内皮标记物8
T1 sequence (looked up): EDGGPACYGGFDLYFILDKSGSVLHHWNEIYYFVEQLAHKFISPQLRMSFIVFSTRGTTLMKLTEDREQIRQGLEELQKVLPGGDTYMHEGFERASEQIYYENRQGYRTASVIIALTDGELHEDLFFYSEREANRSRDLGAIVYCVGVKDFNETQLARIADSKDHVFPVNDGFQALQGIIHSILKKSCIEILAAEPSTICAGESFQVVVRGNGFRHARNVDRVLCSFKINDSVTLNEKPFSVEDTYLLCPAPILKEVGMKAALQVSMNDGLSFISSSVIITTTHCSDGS
Nature of the assay: ELISA, TEM8 protein coated, antibody in 1:4 serial dilution, anti-human IgG-HRP. (ELISA stands for enzyme-linked immunosorbent assay.)

Assay [2] addresses T2, TEM8 on TEM8稳定过表达细胞株 (CHO-K1 cells stably transfected with the full-length TEM8 gene) (human, UniProt Q9H6X2 33-564).
T2 construct: also called TEM8过表达细胞; 细胞膜TEM8
Nature of the assay: cell-based binding on plated TEM8-overexpressing cells, anti-human-Eu, time-resolved fluorescence.

The results in this text go back to patent publication CN106478818A (JIANGSU NOVOMAB BIOPHARMACEUTICALS INC, dated 2017).

B1: NMT802 (antibody, human IgG1, kappa, V domains shown)
VH: EVTLKESGPALVKPTQTLTLTCTFSGFSLSTSGMGVGWIRQPPGKALEWLAHIWWDDVKRYYPALKSRLTISKDTSKSQVVLTMTNMDPADTATYYCARIGYDWFPYWGQGTLVTVSS
VL: DIQMTQSPSFLSASVGDRVTITCKASQNVGIAVAWYQQKPGKAPKLLIYSASNRYTGVPSRFSGSGSGTDFTLTISYLQSEDFATYYCQQYRSYPLTFGGGTKVEIKR
notes: also called 单克隆抗体NMT802; NMT802抗体
A word on the EC50: it is the concentration that produces a half-maximal response. On to B1, for which the results for the EC50 in assay [1] and in assay [2] were 0.0324 µg/mL and 0.133 µg/mL, respectively.

B2: NMT803 (antibody, V domains shown)
VH: EVTLKESGPALVKPTQTLTLTCTFSGFSLSTSGMGVGWIRQPPGKALEWLAHIWWDDVKQYYPALKSRLTISKDTSKSQVVLTMTNMDPVDTATYYCARIGYDWFPYWGQGTLVTVSS
VL: DIQMTQSPSFLSASVGDRVTITCKASQNVGIAVAWYQQKPGKAPKLLIYSASNRYTGVPSRFSGSGSGTDFTLTISCLQSEDFATYYCQQYRFKPLTFGGGTKVEIK
notes: also called 单克隆抗体NMT803
Take B2: the EC50 in assay [1] was found to be 0.00544 µg/mL; in assay [2] it was 0.765 µg/mL.
